# Laboratory results published in patent EP4480965A1, “TRANSFERRIN RECEPTOR-BINDING MOLECULES, CONJUGATES THEREOF AND THEIR USES TO PREVENT OR TREAT CNS DISEASES” (Vect-Horus, priority 2023, dated 2024).
# Tested on: murine SOD1 mRNA
# Test: siRNA biodistribution and SOD1 mRNA by in situ hybridization (miRNAScope / RNAScope)
# Assay type: in vivo, C57Bl/6 mice
# Conditions: single ICV dose 100 µg, seven days
# Protocol: For ISH bioanalysis, 20 µm sagittal cryosections of left brain hemispheres or coronal sections of spinal cords were prepared using a cryostat at -20°C (Leica), collected onto superfrost plus slides and stored at - 80°C until processing. For RNAScope® or miRNAScope® assays, slides containing cyosections were immediately transferred and fixed in 10% Neutral buffered formalin (NBF) for 1h30 at RT. Fluorescent RNAscope® assay for mRNAs detection or chromogenic miRNAscope® assay for siRNA detection were performed according to the manufacter's protocols (Advanced Cell Diagnostics, ACD). […] This distribution correlates with a broad and potent SOD1 mRNA knock-down, as assessed using RNAScope® (Figure 29B and 29E, right panels). […]
# For ISH bioanalysis, 20 µm sagittal cryosections of left brain hemispheres or coronal sections of spinal cords were prepared using a cryostat at -20°C (Leica), collected onto superfrost plus slides and stored at - 80°C until processing. […] This distribution correlates with a broad TfR-dependent and potent SOD1 mRNA knock-down, as assessed using RNAScope® (Figure 31C and 31I, right panels).
# An example of cleavable linker was evaluated and compared to the C5-hFc-siSOD1m-5'VP for its biodistribution in CNS tissues following systemic administration. […]
molecule,measurement,value
C5-siSOD1m-5'VP: TfR-binding VHH-siRNA conjugate wherein VHH is C5 (conjugate) VHH: EVQLVESGGGVVQPGGSLKLSCVASGTDFSINFIRWYRQAPGKQREFVAGFTATGNTNYADSMKGRFTISRDNTKNAVYLQIDSLKPEDTAVYYCYMLDKWGQGTQVTVSSAAAEQKLISEEDLNGAAHHHHHHGS,biodistribution of the siSOD1m AS strand in brain and spinal cord,broad biodistribution
